This test addresses T1, Recombinant human HTRA1 (R&D Systems, 2916-SE) (human, UniProt Q92743 23-480, RED-NHS dye label (Monolith NT Protein Labeling Kit RED-NHS), molar dye to protein ratio 5:1).
T1 construct: Serine protease HTRA1, human, recombinant, R&D Systems catalogue 2916-SE; In the functional rows the HTRA1 was full-length HTRA1 (pcDNA3) in medium of stably transfected HEK293 cells, not this bought protein; also called labeled HTRA1; source: bought: R&D Systems, 2916-SE
The experiment in a line: MST; labeled HTRA1 constant at 65 nM, unlabeled MIF titrated 2.28 nM to 1 µM; 50 mM Tris, 0.05% Tween-20, pH 8.0; 20 min at RT, 25 °C; Monolith NT.115, 40% LED, 80% MST power; Thermophoresis + T-jump signal. To be noted: both partners purified.

T1 sequence (Q92743 23-480): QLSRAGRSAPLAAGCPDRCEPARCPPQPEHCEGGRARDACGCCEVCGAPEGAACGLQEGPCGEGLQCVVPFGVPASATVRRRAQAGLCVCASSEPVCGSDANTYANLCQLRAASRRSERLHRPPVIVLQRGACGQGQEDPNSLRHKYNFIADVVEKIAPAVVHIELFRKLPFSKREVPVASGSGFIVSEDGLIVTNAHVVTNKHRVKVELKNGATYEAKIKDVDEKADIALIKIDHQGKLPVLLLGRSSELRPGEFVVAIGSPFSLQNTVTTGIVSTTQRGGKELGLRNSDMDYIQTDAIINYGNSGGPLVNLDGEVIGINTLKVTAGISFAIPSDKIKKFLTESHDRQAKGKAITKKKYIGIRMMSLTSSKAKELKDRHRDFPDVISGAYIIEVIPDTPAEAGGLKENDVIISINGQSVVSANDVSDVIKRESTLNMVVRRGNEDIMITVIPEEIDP

B1: MIF (Pepro-Tech, 300-69) (natural protein, UniProt P14174 1-115, looked up)
chain: MPMFIVNTNVPRASVPDGFLSELTQQLAQATGKPPQYIAVHVVPDQLMAFGGSSEPCALCSLHSIGKIGGAQNRSYSKLLCGLLAERLRISPDRVYINYYDMNAANVGWNNSTFA
notes: also called unlabeled MIF; non-labeled MIF; source: bought: Pepro-Tech, 300-69
Broadly, the Kd is a measure of binding affinity in units of concentration. For the molecule B1, the Kd came to 147 nM.

For the origin of these results see publication PMC5663815, “Macrophage migration inhibitory factor (MIF) modulates trophic signaling through interaction with serine protease HTRA1” (Cellular and Molecular Life Sciences: CMLS, 2017).
